# Measured values published in PMC9703590 (Protein Science : A Publication of the Protein Society, 2022).
# Like-named read-outs stand apart in the source and are kept apart here.
# Columns and labels:
# AncCDT‐5 (A5) = assay: discontinuous colorimetric assay of phenylpyruvate formation; assay type: biochemical, synthetic construct; conditions: 25°C, 50 mM Na2HPO4 substrate buffer, 100 nM enzyme
# SEC-MALS = target: the molecule itself; assay: SEC-MALS
# [1] = target: the molecule itself
Molecule,stoichiometry N (SEC-MALS),also measured
O=C(O)C(=O)CC1(C(=O)O)C=CC(O)C=C1 (stereo not shown) [prephenate],,Km (AncCDT‐5 (A5)): 81.2 ± 26.3 µM
"Cyclohexadienyl dehydratase from Pseudomonas aeruginosa (PaCDT) (enzyme, UniProt Q01269 26-268, looked up) QESRLDRILESGVLRVATTGDYKPFSYRTEEGGYAGFDVDMAQRLAESLGAKLVVVPTSWPNLMRDFADDRFDIAMSGISINLERQRQAYFSIPYLRDGKTPITLCSEEARFQTLEQIDQPGVTAIVNPGGTNEKFARANLKKARILVHPDNVTIFQQIVDGKADLMMTDAIEARLQSRLHPELCAVHPQQPFDFAEKAYLLPRDEAFKRYVDQWLHIAEQSGLLRQRMEHWLEYRWPTAHGK",3,
"PaCDTΔC (C-terminal-truncated PaCDT) (enzyme, Pseudomonas aeruginosa, UniProt Q01269 26-259, looked up) QESRLDRILESGVLRVATTGDYKPFSYRTEEGGYAGFDVDMAQRLAESLGAKLVVVPTSWPNLMRDFADDRFDIAMSGISINLERQRQAYFSIPYLRDGKTPITLCSEEARFQTLEQIDQPGVTAIVNPGGTNEKFARANLKKARILVHPDNVTIFQQIVDGKADLMMTDAIEARLQSRLHPELCAVHPQQPFDFAEKAYLLPRDEAFKRYVDQWLHIAEQSGLLRQRMEHWLE",3,
Ws0279 (natural protein) QKSTLNEIIKRGELRVGLEPGYLPFEMKDKKGNVIGFDVDLAREMAKAMGVKLKLVPTSWDGLIPGLVTEKFDIIISGMTISQERNLRVNFVEPYIVVGQSLLVKKGLEKGVKSYKDLDKPELTLVTKFGVSAEYAAKRLFKNAKLKTYDTEAEAVQEVLNGKADMFIFDLPFNVAFMAQKGQGYLVHLDTSLTYEPLGWAIKKGDPDFLNWLNHFLAQIKHDGSYDELYERWFVL,,stoichiometry N [1]: 3
